From paper PMC3491091 come the findings set out here.

The target of the test is soybean trypsin inhibitor (soybean) (UniProt P01070). Briefly: SPR + ITC + AUC + fluorescence polarisation. (Polarisation of emitted light reports the rotation of a fluorescent probe.)

As to α-chymotrypsin (enzyme), the stoichiometry N amounted to 2.

As usually defined, the stoichiometry N is a count of units in the complex or per binding partner.
